In PMC4516936 (Toxins, 2015) one finds Kd and kon data, which are given here for two molecules.

As a reminder, the Kd is the equilibrium constant for the complex coming apart. In general, kon refers to a measure of how fast the partners come together. A low value points to slower complex formation.

Experiment [1] has as its target cholera toxin A2 CTA2 (Vibrio cholerae) (UniProt P01555). Description: SPR. Conditions: cited from earlier work.
Experiment [2] deals with cholera toxin A1 subunit (CTA1), reduced, free (UniProt P01555 19-212). In words: SPR. To be noted: both partners purified.
Chain of cholera toxin A1 subunit (CTA1), reduced, free (P01555 19-212): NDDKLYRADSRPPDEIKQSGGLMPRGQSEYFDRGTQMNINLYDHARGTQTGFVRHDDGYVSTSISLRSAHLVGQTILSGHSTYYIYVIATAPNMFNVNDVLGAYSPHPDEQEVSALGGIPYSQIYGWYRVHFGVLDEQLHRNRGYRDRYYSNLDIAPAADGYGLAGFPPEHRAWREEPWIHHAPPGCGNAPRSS

On to “cholera toxin A1 CTA1 (from UniProt P01555)”, for which the Kd in experiment [1] is 53 nM.

B1: CTA2/CTB5 complex (complex)
chain 1: MSNTCDEKTQSLGVKFLDEYQSKVKRQIFSGYQSDIDTHNRIKDEL
chain 2: TPQNITDLCAEYHNTQIYTLNDKIFSYTESLAGKREMAIITFKNGAIFQVEVPGSQHIDSQKKAIERMKDTLRIAYLTEAKVEKLCVWNNKTPHAIAAISMAN
notes: copies: + 5
In turn, B1 yielded a kon in experiment [2] of 521 M⁻¹ s⁻¹.
